Patent US20240218030A1 (published 2024)

Molecular target: human transferrin receptor-Fc tag standard (human, UniProt P02786 89-760)
Assay: ELISA

Sequence of human transferrin receptor-Fc tag standard (P02786 89-760): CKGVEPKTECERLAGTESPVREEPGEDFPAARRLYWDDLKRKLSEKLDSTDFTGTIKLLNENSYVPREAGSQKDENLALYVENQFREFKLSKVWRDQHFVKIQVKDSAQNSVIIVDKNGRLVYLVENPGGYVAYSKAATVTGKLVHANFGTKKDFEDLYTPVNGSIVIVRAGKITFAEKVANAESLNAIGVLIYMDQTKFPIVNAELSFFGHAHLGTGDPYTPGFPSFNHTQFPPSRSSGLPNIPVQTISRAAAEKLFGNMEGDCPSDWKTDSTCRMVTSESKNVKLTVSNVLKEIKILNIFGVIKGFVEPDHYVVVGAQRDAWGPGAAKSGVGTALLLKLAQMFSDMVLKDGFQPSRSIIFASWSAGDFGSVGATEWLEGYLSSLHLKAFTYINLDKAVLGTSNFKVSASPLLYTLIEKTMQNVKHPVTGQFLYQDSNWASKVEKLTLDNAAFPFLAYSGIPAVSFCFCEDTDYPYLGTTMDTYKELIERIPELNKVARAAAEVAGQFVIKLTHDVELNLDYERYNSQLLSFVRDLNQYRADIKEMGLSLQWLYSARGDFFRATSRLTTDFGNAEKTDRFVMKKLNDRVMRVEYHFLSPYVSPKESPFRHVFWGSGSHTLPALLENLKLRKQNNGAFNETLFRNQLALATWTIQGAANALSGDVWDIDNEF

Kd: 182 nM
B1: huHF_Mutant1-dual (designed binder)
chain: MTTASTSQVRQNYHAASEAAINAQINLELYASYVYLSMSYYFDRDDVALKNFAKYFLHQSHEEREHAEKLMKLQNQRGGRIALADIQKPDCDDGGSYGSLYAFDIWESGLNAMECALHLEKNVNQSLLELHKLATDKNDPHLCDFIETHYLNEQVKAIKELGDHVTNLRKMGAPESGLAEYLFDKHTLGDSDNESMPSFITLASLSTWEGYFDF
